Experimental data reported in US20240261333A1, “NOVEL TARGETS FOR ENHANCING ANTI-TUMOR IMMUNITY” (THE BROAD INSTITUTE, INC., priority 2021, published 2024).

Experiments:
[1] = biological target: ARPC4 (human) (UniProt P59998); test: co-IP, IgG control, lysate of cells with N-FLAG B3GNT2; mass spectrometry
[2] = biological target: C1orf68 (human) (UniProt Q5T750); test: as above
[3] = biological target: CSE1L (human) (UniProt P55060); test: as above
[4] = biological target: DDX5 (human) (UniProt P17844); test: as above
Chain of DDX5 (human) (P17844 whole entry): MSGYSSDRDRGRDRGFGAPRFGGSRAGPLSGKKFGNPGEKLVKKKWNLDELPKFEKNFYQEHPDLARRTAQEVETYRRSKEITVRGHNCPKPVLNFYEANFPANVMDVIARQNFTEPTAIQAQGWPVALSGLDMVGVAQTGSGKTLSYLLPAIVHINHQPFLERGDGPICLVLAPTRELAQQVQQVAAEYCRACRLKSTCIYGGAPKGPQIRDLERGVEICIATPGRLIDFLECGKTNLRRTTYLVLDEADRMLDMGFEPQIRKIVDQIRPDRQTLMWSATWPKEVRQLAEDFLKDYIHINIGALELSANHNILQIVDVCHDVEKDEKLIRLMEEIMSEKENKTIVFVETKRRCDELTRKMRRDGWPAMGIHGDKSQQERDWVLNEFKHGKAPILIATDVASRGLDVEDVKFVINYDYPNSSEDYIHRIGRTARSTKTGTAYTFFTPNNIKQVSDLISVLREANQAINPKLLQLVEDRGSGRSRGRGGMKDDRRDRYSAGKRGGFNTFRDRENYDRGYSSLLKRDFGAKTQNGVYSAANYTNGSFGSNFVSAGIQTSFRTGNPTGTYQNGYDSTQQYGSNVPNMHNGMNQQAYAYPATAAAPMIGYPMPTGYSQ

[5] = biological target: FAU (human) (UniProt P62861); test: as above
[6] = biological target: HADHB (human) (UniProt P55084); test: as above
[7] = biological target: HNRNPK (human) (UniProt P61978); test: as above
[8] = biological target: KRT4 (human) (UniProt P19013); test: as above
[9] = biological target: LMNA (human) (UniProt P02545); test: as above
[10] = biological target: LSM12 (human) (UniProt Q3MHD2); test: as above
[11] = biological target: NUFIP2 (human) (UniProt Q7Z417); test: as above
[12] = biological target: PRBP1 (human) (UniProt P26599); test: as above
Chain of PRBP1 (human) (P26599 whole entry): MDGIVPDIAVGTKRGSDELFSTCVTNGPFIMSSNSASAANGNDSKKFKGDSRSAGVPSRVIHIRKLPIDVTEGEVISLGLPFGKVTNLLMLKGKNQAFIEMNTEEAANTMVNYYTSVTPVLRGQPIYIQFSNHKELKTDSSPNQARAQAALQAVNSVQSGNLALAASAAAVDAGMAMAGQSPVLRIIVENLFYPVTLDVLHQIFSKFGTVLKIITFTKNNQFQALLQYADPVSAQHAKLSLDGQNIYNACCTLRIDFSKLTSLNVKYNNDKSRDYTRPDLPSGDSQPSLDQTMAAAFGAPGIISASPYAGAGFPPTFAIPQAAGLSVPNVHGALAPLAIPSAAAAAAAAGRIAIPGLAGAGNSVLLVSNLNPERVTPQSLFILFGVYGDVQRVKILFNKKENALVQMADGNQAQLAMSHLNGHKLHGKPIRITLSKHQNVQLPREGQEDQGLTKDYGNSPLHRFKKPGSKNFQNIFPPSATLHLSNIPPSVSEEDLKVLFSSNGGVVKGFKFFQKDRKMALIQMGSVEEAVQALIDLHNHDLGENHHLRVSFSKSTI

[13] = biological target: PUM1 (human) (UniProt Q14671); test: as above
[14] = biological target: RPS28 (human) (UniProt P62857); test: as above
[15] = biological target: RPS3 (human) (UniProt P23396); test: as above
[16] = biological target: SAMM50 (human) (UniProt Q9Y512); test: as above
[17] = biological target: T1, SERBP1 (human) (UniProt Q8NC51); test: as above
T1 sequence (looked up): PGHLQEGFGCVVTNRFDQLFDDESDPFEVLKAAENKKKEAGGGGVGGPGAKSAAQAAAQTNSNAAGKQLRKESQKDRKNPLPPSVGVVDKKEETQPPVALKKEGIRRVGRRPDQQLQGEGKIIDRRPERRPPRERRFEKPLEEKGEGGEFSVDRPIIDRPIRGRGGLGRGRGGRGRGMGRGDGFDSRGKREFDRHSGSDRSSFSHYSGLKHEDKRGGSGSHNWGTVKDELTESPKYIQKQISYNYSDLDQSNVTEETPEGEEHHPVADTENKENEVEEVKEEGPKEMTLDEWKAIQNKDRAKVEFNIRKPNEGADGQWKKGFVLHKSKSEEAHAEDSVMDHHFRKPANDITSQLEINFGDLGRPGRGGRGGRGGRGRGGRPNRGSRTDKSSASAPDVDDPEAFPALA

[18] = biological target: SPTAN1 (human) (UniProt Q13813); test: as above
[19] = biological target: CCT3 (human) (UniProt P49368); test: control IP with IgG, lysate of cells with N-FLAG B3GNT2, mass spectrometry
[20] = biological target: CHCHD3 (human) (UniProt Q9NX63); test: as above
Chain of CHCHD3 (human) (Q9NX63 2-227 limits assumed): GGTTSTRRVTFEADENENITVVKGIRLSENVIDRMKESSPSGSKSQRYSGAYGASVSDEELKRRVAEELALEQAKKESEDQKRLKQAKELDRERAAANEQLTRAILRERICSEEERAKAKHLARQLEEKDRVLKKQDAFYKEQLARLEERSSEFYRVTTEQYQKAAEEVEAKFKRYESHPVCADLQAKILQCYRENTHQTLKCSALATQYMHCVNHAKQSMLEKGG

[21] = biological target: DDX1 (human) (UniProt Q92499); test: as above
[22] = biological target: EMILIN1 (human) (UniProt Q9Y6C2); test: as above
[23] = biological target: FLG (human) (UniProt P20930); test: as above
[24] = biological target: GBF1 (human) (UniProt Q92538); test: as above
Chain of GBF1 (human) (Q92538 whole entry): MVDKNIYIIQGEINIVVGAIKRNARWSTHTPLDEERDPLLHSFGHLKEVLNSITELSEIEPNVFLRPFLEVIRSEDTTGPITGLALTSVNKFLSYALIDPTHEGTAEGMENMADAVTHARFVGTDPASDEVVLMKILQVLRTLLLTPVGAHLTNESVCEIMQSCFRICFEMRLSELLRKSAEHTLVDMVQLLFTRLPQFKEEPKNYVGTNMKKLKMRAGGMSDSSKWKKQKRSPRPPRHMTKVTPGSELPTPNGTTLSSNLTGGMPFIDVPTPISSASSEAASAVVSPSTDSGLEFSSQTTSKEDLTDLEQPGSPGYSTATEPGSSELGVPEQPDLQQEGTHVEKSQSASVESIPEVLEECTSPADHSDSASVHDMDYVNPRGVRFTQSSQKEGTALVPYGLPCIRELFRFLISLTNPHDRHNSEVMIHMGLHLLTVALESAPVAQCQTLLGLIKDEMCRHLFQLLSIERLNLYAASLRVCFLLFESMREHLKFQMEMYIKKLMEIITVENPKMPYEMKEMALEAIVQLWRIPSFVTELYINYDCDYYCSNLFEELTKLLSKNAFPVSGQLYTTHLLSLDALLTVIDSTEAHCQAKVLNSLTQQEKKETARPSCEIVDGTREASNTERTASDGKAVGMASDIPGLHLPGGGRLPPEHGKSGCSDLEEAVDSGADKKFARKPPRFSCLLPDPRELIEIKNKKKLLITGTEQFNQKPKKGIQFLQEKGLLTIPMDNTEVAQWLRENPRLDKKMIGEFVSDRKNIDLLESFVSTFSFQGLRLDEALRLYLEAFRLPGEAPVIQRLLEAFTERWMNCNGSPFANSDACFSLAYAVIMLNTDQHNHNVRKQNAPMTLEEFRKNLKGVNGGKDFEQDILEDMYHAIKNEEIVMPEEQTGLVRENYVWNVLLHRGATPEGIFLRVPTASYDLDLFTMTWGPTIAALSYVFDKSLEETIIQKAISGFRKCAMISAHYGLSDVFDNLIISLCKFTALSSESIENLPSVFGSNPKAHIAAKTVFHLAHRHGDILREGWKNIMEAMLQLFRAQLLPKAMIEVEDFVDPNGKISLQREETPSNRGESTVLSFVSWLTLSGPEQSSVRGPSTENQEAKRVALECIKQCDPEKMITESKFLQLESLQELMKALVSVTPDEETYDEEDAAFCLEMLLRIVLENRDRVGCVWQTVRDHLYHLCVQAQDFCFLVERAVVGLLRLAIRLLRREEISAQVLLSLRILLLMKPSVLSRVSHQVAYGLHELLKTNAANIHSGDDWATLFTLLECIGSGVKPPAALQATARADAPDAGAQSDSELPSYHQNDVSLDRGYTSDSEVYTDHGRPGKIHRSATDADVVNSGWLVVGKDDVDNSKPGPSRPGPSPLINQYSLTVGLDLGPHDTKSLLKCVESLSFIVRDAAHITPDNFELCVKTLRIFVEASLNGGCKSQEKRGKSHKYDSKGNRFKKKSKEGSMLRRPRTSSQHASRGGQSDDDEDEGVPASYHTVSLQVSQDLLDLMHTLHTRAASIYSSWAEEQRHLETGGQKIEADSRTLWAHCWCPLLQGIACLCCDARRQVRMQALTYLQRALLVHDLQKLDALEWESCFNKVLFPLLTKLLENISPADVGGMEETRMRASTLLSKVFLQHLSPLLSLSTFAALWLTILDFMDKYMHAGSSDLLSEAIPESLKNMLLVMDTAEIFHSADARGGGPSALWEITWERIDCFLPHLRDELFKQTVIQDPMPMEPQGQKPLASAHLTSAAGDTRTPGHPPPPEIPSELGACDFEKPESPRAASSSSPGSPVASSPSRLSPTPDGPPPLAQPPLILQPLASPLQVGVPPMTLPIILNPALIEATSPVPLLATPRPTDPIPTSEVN

[25] = biological target: GSN (human) (UniProt P06396); test: as above
Chain of GSN (human) (P06396 28-782 limits assumed): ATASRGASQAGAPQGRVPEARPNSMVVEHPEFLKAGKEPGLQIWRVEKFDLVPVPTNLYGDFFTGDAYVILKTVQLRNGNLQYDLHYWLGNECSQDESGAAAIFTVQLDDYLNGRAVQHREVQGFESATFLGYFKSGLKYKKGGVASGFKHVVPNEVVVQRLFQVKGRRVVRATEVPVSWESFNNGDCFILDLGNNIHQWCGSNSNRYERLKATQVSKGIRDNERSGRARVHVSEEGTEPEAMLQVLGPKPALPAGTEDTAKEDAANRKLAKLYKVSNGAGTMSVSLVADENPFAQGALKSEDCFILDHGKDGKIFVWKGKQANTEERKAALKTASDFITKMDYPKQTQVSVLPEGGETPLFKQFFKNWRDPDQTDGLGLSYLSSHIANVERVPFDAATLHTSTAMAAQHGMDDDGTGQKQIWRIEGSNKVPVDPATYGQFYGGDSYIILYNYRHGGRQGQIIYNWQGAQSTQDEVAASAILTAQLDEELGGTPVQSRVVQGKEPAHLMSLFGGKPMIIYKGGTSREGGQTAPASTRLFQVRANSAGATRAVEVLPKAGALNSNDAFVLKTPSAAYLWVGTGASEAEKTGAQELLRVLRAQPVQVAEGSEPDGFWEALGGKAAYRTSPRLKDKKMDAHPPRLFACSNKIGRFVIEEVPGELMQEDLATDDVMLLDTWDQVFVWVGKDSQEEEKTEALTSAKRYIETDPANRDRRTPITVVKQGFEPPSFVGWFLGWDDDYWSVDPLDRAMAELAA

[26] = biological target: IL13RA2 (human) (UniProt Q14627); test: as above
[27] = biological target: LGALS7B (human) (UniProt P47929); test: as above
[28] = biological target: RACK1 (human) (UniProt P63244); test: as above
[29] = biological target: RPL28 (human) (UniProt P46779); test: as above
[30] = biological target: RPL38 (human) (UniProt P63173); test: as above
[31] = biological target: RPL8 (human) (UniProt P62917); test: as above
[32] = biological target: S100A7 (human) (UniProt P31151); test: as above
Chain of S100A7 (human) (P31151 2-101 limits assumed): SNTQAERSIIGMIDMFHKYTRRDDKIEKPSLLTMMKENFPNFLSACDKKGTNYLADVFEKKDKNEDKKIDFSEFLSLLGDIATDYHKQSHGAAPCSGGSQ

[33] = biological target: TBL2 (human) (UniProt Q9Y4P3); test: as above

Chain of CSE1L (human) (P55060 other isoform, or with tags, fused parts or gaps limits assumed): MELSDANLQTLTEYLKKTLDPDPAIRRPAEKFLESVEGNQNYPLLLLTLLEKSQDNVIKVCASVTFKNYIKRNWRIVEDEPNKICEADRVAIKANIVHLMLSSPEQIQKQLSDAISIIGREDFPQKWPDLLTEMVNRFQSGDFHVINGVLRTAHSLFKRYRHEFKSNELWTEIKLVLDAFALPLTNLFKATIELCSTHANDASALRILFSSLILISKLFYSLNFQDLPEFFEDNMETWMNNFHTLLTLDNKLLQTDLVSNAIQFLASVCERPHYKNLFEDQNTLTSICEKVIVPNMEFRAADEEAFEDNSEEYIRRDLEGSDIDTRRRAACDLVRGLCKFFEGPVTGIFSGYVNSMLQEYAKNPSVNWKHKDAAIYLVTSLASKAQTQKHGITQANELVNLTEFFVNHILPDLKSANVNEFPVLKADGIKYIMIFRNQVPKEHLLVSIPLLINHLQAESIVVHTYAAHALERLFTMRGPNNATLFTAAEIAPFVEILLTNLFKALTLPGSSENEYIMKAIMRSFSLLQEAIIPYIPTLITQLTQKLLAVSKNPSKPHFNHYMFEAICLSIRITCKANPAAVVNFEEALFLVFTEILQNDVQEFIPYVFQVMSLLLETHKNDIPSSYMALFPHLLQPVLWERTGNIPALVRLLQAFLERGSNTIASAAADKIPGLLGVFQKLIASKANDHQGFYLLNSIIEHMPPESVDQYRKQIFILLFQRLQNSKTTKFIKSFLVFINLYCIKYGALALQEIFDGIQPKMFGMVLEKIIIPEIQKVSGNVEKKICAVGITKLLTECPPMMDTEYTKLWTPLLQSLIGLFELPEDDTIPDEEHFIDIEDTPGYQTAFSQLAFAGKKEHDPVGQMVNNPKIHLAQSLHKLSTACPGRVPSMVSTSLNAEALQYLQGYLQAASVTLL

With “IgG control (Millipore Sigma 12-371) (antibody)” the co-IP mass spectrometry count [1] was 0, the co-IP mass spectrometry count [2] was 0 and the co-IP mass spectrometry count [3] was 0. For the same substance, the co-IP mass spectrometry count [4] was 18, the co-IP mass spectrometry count [5] was 6 and the co-IP mass spectrometry count [6] was 0. It also gave a co-IP mass spectrometry count [7] of 8, a co-IP mass spectrometry count [8] of 21 and a co-IP mass spectrometry count [9] of 11. It also gave a co-IP mass spectrometry count [10] of 2, a co-IP mass spectrometry count [11] of 3 and a co-IP mass spectrometry count [12] of 7. The co-IP mass spectrometry count [13] was 0, the co-IP mass spectrometry count [14] was 0 and the co-IP mass spectrometry count [15] was 13. It also gave a co-IP mass spectrometry count [16] of 0, a co-IP mass spectrometry count [17] of 4 and a co-IP mass spectrometry count [18] of 0. It also gave a co-IP mass spectrometry count [19] of 0, a co-IP mass spectrometry count [20] of 10 and a co-IP mass spectrometry count [21] of 2. The co-IP mass spectrometry count [22] was 0, the co-IP mass spectrometry count [23] was 20 and the co-IP mass spectrometry count [24] was 0. It also gave a co-IP mass spectrometry count [25] of 0, a co-IP mass spectrometry count [26] of 0 and a co-IP mass spectrometry count [27] of 4. It also gave a co-IP mass spectrometry count [28] of 0, a co-IP mass spectrometry count [29] of 3 and a co-IP mass spectrometry count [30] of 5. For the same substance, the co-IP mass spectrometry count [31] was 3, the co-IP mass spectrometry count [32] was 2 and the co-IP mass spectrometry count [33] was 0.
